Assay results as given in the Human Domainome abundance scans (Beltran et al. 2025).
± gives the uncertainty stated by the source.

B1: POU domain, class 3, transcription factor 4, residues 280 to 335; numbered along this chain, P49335 (parent)
chain: KKRTSIEVSVKGVLETHFLKCPKPAAQEISSLADSLQLEKEVVRVWFCNRRQKEKR

Variants of: B1
Assay: abundance fitness (aPCA) (normalised: wild type 0, dead -1); higher = more abundant; growth selection in yeast, the domain comes from the species named
Details: Homo sapiens

Variant | abundance fitness
KKRTSIEVSVKGVLETHFLKCPKPAAQEISLLADSLQLEKEVVRVWFCNRRQKEKR [S31L] | -0.114 ± 0.12
KKRTSIEVSVKGVLETHFLKCPKPAAQEISMLADSLQLEKEVVRVWFCNRRQKEKR [S31M] | 0.096 ± 0.15
KKRTSIEVSVKGVLETHFLKCPKPAAQEISFLADSLQLEKEVVRVWFCNRRQKEKR [S31F] | -0.059 ± 0.16
KKRTSIEVSVKGVLETHFLKCPKPVAQEISSLADSLQLEKEVVRVWFCNRRQKEKR [A25V] | -0.476 ± 0.14
KKRTSIEVSVKGVLETHFLKCPKPGAQEISSLADSLQLEKEVVRVWFCNRRQKEKR [A25G] | 0.313 ± 0.1
KKRTSIEVSVKGVLETHFLKCPKPAAQEISSLADSLQCEKEVVRVWFCNRRQKEKR [L38C] | -0.656 ± 0.22
KKRTSIEVSVKGVLETHFLKCPKPAAQEISSLADSLQGEKEVVRVWFCNRRQKEKR [L38G] | -0.679 ± 0.14
KKRTSIEVSVKGVLETHFLKCPKPAAQEISSLADSLQKEKEVVRVWFCNRRQKEKR [L38K] | -0.531 ± 0.29
KKRTSIEVSVKGVLETHFLKCPKPAAQEISSIADSLQLEKEVVRVWFCNRRQKEKR [L32I] | -0.041 ± 0.48
KKRTLIEVSVKGVLETHFLKCPKPAAQEISSLADSLQLEKEVVRVWFCNRRQKEKR [S5L] | -0.045 ± 0.14
KKRTTIEVSVKGVLETHFLKCPKPAAQEISSLADSLQLEKEVVRVWFCNRRQKEKR [S5T] | 0.217 ± 0.15
KKRTSIEVSVKGVLETHFLKCPKPAAQEISSLADSLQLEKEVVRVWFCNRRQKEKG [R56G] | -0.325 ± 0.19
KKRTSIEVSVSGVLETHFLKCPKPAAQEISSLADSLQLEKEVVRVWFCNRRQKEKR [K11S] | -0.498 ± 0.3
KKRTSIEVSVGGVLETHFLKCPKPAAQEISSLADSLQLEKEVVRVWFCNRRQKEKR [K11G] | -0.645 ± 0.35
KKRTSIEVSVMGVLETHFLKCPKPAAQEISSLADSLQLEKEVVRVWFCNRRQKEKR [K11M] | 0.17 ± 0.44
KKRTSIEVSVKGTLETHFLKCPKPAAQEISSLADSLQLEKEVVRVWFCNRRQKEKR [V13T] | -0.502 ± 0.42
KKRTSIEVNVKGVLETHFLKCPKPAAQEISSLADSLQLEKEVVRVWFCNRRQKEKR [S9N] | 0.52 ± 0.28
KKRTSIEVSVKGVLCTHFLKCPKPAAQEISSLADSLQLEKEVVRVWFCNRRQKEKR [E15C] | -0.947 ± 0.3
KKRTSIEVSVKGVLTTHFLKCPKPAAQEISSLADSLQLEKEVVRVWFCNRRQKEKR [E15T] | -0.82 ± 0.22
KKRTSIEVSVKGVLETHFLKCPKPAAQEISSLADSLQLESEVVRVWFCNRRQKEKR [K40S] | -0.188 ± 0.14
KKRTSIEVSVKGVLETHFLKCPKPAAQEISSLADSLQLEHEVVRVWFCNRRQKEKR [K40H] | 0.099 ± 0.22
KKRTSIEVSVKGVLETHFLKCPKPAAQEISSLADSLQLECEVVRVWFCNRRQKEKR [K40C] | -0.154 ± 0.25
KKRTSIEVSVKGVLETHFLKCPKPAAQEISSLADSLQLEYEVVRVWFCNRRQKEKR [K40Y] | 0.009 ± 0.2
KKRTSIEVSVKGVLETHFLKCPKPAAQEISSLADSLQLENEVVRVWFCNRRQKEKR [K40N] | -0.248 ± 0.28

Variant | abundance fitness
KKRTSIEVSVKGVHETHFLKCPKPAAQEISSLADSLQLEKEVVRVWFCNRRQKEKR [L14H] | -0.983 ± 0.27
KKRTSIEVSVKGVLETHFLKCPKPAAQEISSLADSLQLEKEVVRAWFCNRRQKEKR [V45A] | 0.085 ± 0.12
KKRTSIEVSVKGVLETPFLKCPKPAAQEISSLADSLQLEKEVVRVWFCNRRQKEKR [H17P] | -0.957 ± 0.32
KKRTSIEVSVKGVLETHFLKCPKPAAQEISSLADSLMLEKEVVRVWFCNRRQKEKR [Q37M] | -0.22 ± 0.32
KKRLSIEVSVKGVLETHFLKCPKPAAQEISSLADSLQLEKEVVRVWFCNRRQKEKR [T4L] | -0.021 ± 0.11
KKRWSIEVSVKGVLETHFLKCPKPAAQEISSLADSLQLEKEVVRVWFCNRRQKEKR [T4W] | -0.486 ± 0.17
KKRTSIEVSVKGVLETHFLKCPKPAAQEISSLADSLQLEKEVVRVWFCHRRQKEKR [N49H] | -0.46 ± 0.2
KKRTSIGVSVKGVLETHFLKCPKPAAQEISSLADSLQLEKEVVRVWFCNRRQKEKR [E7G] | 0.381 ± 0.12
KKRTSIEVSVKGVLETHFLKCPKPAAQEISSLMDSLQLEKEVVRVWFCNRRQKEKR [A33M] | -0.836 ± 0.38
KKRTSIEVSVKGVLETHFLKCPKPAAQEISSLDDSLQLEKEVVRVWFCNRRQKEKR [A33D] | -0.96 ± 0.31
KKRTSIEVSVKGVLETHFLKCPKPAAQEISSLVDSLQLEKEVVRVWFCNRRQKEKR [A33V] | -1.02 ± 0.24
KKRTSIEVSVKGVLETHFLKCPKPAAGEISSLADSLQLEKEVVRVWFCNRRQKEKR [Q27G] | -0.172 ± 0.1
KKRTSIEVSVKGVLETHDLKCPKPAAQEISSLADSLQLEKEVVRVWFCNRRQKEKR [F18D] | -0.814 ± 0.27
KKRTSIEVSVKGVLETHFLKCLKPAAQEISSLADSLQLEKEVVRVWFCNRRQKEKR [P22L] | -0.783 ± 0.15
KKRTSIEVSVKGVLETHFLKCKKPAAQEISSLADSLQLEKEVVRVWFCNRRQKEKR [P22K] | -0.315 ± 0.21
KKRTSIEVSVKGVLETHFLKCVKPAAQEISSLADSLQLEKEVVRVWFCNRRQKEKR [P22V] | -0.469 ± 0.13
KKRTSIEVSVKGVLETHFLKCPKPAAQEISSLADSLQLEKEVVRVWFCNRRQTEKR [K53T] | -0.428 ± 0.2
KKRTSIEVSVKGVLETHFLKCPKPAAQEISSLADSLQLEKEVVRVWFCNRRQREKR [K53R] | -0.171 ± 0.15
KKRTSIEVSVKGVLETHFLKCPKPAAQEISSLADSLQLEKEVVRVWFCNNRQKEKR [R50N] | -0.771 ± 0.41
KKRTSIEVSVKGVLETHFLKCPKYAAQEISSLADSLQLEKEVVRVWFCNRRQKEKR [P24Y] | -1.07 ± 0.43
KKRTSIEVSVKGVLETHFLKCPKPAAQEISSLADSLQLEKEVVRVWFCNRRQKLKR [E54L] | -0.787 ± 0.16
KKRTSIEVSVKGVLETHFLKCPKPAAQEISSLADSLQLEKEVVRVWFCNRRQKKKR [E54K] | -0.591 ± 0.46
KKRTSIEVSVKGVLEGHFLKCPKPAAQEISSLADSLQLEKEVVRVWFCNRRQKEKR [T16G] | 0.041 ± 0.13
